Measured values as given in patent publication US10442866 (BEIJING MABWORKS BIOTECH, dated 2019).
Read-outs that look alike come from different tables or passages of the source.

Experiments:
[1] = target: T1, rhesus OX40 expressed on HEK293A cells (rhesus, UniProt P43489 29-277 (human entry)); test: FACS on HEK293A/rhOX40 cells
T1 construct: also called HEK293A/rhOX40; HEK293A/rhesusOX40 cells
T1 chain: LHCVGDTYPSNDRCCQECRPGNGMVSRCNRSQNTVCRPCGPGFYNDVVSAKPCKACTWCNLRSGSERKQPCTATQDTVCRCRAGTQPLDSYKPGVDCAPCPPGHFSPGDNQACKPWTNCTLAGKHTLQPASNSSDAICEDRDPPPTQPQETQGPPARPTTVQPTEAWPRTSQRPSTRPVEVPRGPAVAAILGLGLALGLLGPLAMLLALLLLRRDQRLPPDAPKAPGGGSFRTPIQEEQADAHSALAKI

[2] = target: T2, human OX40 expressed on HEK293A cells (human, UniProt P43489 29-277); test: FACS on HEK293A/huOX40 cells
T2 construct: also called HEK293A/huOX40; HEK293A/human OX40 cells
T2 sequence: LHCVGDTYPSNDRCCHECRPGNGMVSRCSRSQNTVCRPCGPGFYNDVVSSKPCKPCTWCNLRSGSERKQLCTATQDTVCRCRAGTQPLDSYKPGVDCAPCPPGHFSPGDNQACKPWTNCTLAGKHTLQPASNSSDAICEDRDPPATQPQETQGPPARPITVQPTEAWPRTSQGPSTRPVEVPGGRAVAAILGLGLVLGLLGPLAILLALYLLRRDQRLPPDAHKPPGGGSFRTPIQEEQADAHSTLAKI

[3] = target: T3, murine OX40-His (Crown, Cat#: E3350-B1707) (mouse, UniProt P47741 20-211); test: ELISA on coated mouse OX40-His, OD450
T3 construct: bought protein; also called mouse OX40-his; muOX40-his; not shown: His tag
T3 sequence: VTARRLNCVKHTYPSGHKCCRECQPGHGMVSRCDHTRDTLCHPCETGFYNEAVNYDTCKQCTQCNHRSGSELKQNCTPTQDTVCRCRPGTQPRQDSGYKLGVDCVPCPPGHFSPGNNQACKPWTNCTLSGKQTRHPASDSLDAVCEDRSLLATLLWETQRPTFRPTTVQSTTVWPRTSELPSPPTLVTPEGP

[4] = target: T4, recombinant human OX40-his (Sino Biological, Cat#:10481-H03H) (human, UniProt P43489 29-214); test: SPR Biacore 8K, OX40-His on chip, antibody injected
T4 construct: bought protein; also called hOX40-his; not shown: His tag
T4 sequence: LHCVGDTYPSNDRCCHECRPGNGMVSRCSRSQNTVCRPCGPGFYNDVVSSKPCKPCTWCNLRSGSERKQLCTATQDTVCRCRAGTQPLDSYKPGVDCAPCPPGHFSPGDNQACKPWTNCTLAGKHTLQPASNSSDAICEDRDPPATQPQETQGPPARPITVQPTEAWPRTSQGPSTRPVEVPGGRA
Method: SPR assays were used to determine the binding affinity of the chimetic or humanized anti-OX40 antibodies to human OX40 with the BIAcore™ 8K instrument (GE Life Sciences). Briefly, 100-200 response units (RU) of human OX40-His protein (Sino Biological, CN, Cat#:10481-H03H, Lot no.: MA08MA3003) were coupled to CM5 biosensor chips (Cat#: BR-1005-30, GE Life Sciences), followed by blocking of un-reacted groups with 1M ethanolamine. Serially diluted antibodies at concentrations ranging from 0.3 µM to 10 µM were injected into the SPR running buffer (HBS-EP buffer, pH7.4, GE Life Sciences; US; Cat#:BR-1006-69) at 30 µL/minute. The binding capacitity was calculated with the RUs of blank controls subtracted. The association rate (k_a) and dissociation rate (k_d) were calculated using the one-to-one Langmuir binding model (BIA Evaluation Software, GE Life Sciences). The equilibrium dissociation constant K_D was calculated as the k_d/k_a ratio.

[5] = target: T1, rhesus OX40 expressed on HEK293A cells; test: FACS on HEK293A/rhesus OX40 cells, MFI (panel without title; monkey OX40 by the legend)
Method: Briefly, 10^5 HEK293A cells were seeded into each well of the 96-well plates and serially diluted anti-OX40 antibodies were added to the plates. After incubated at 4° C. for 1 hour, plates were washed 3 times with PBST. Then, an APC coupled Goat Anti-Mouse IgG (BioLegen, US, Cat#: 405308) diluted 500× was added to the plates. After incubation at 4° C. for 1 hour, the plates were washed with PBS for 3 times and then cell fluorescence was monitored using a FACS machine (BD).
Example 15 Humanized Anti-OX40 Antibodies Bound to Human or Rhesus OX40 Expressed on HEK293A Cells The humanized anti-OX40 antibodies were also tested for their ability of binding to HEK293A/huOX40 cells or HEK293A/rhOX40 cells, following the FACS analysis protocol as described in Example 5.

[6] = target: T5, recombinant rhesus OX40-his (Sino Biological, Cat#:90846-C08H) (rhesus monkey, UniProt P43489 29-214 (human entry)); test: ELISA on coated rhesus OX40-His, OD450
T5 construct: bought protein; also called monkey OX40-his; rhOX40-his; not shown: His tag
T5 chain: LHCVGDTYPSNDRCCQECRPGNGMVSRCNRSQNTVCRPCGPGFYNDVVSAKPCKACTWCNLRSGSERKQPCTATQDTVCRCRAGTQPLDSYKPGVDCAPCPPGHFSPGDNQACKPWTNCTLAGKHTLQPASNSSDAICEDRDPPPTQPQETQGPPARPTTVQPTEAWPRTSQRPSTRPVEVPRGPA

[7] = target: T3, murine OX40-His (Crown, Cat#: …); test: ELISA on coated mouse OX40-His, OD450; remark: listed apart in the source
[8] = target: T5, recombinant rhesus OX40-his (Sino …); test: ELISA on coated rhesus OX40-His, OD450
[9] = target: T4, recombinant human OX40-his (Sino …); test: ELISA on coated human OX40-His, OD450

B1: chimeric antibody 68C8 (antibody, human IgG1, kappa, V domains shown)
VH: QVQLQQSGAELVKPGASVKMSCKASGDTFTSYWITWVKQRPGQGLEWIGDIHPGSGSTNNNEKFKNKATLTVDTSSSTAYMQLSSLTSEDSAVYYCAKLRPYYFVYWGQGTTLTVSS
VL: DIQMTQTTSSLSASLGDRVTISCRASQDISNYLNWYQQKPDGTVKLLIYYTSRLLSGVPSRFSGSGSGTDYSLTISNLEQEDIATYFCQQGNTLPLTFGAGTRLELKR
notes: mouse variable regions with human IgG1/kappa constant regions
In the case of B1, the EC50 [1] is reported as 80.7 ng/mL, the EC50 [2] is reported as 134 ng/mL and the binding result [3] is reported as “no binding (tested: 10000 ng/ml (log 4))”. For the same binder, the Kd [4] was 0.187 nM, the koff [4] was 7.35e-05 s⁻¹ and the kon [4] was 393000 M⁻¹ s⁻¹.

B2: 68C8-VH2VL2 (antibody, human IgG1, kappa, V domains shown)
VH: QVQLVQSGAEVKKPGASVKVSCKVSGDTFTSYWITWVRQRPGKGLEWMGDIHPGSGSTNNNEKFKNRVTMTVDTSTDTAYMELSSLRSEDTAVYYCATLRPYYFVYWGQGTLVTVSS
VL: DIQMTQSPSSLSASVGDRVTITCRASQDISNYLNWYQQKPGKTPKLLIYYTSRLLSGVPSRFSGSGSGTDYTLTISSLQPEDFATYYCQQGNTLPLTFGQGTRLEIKR
notes: humanized; also called 68C8-H2L2
For B2, the binding result [5] was “binds”, the binding result [3] was “no binding (tested: 10000 ng/ml (log 4))” and the Kd [4] was 5.07 nM. The koff [4] was 0.00105 s⁻¹, the kon [4] was 207000 M⁻¹ s⁻¹ and the binding result [6] was “binds”.

B3: 68C8-VH0VL0 (antibody, human IgG1, kappa, V domains shown)
VH: QVQLVQSGAEVKKPGASVKVSCKVSGDTFTSYWITWVRQAPGKGLEWMGDIHPGSGSTNNNEKFKNRVTMTEDTSTDTAYMELSSLRSEDTAVYYCATLRPYYFVYWGQGTLVTVSS
VL: DIQMTQSPSSLSASVGDRVTITCRASQDISNYLNWYQQKPGKAPKLLIYYTSRLLSGVPSRFSGSGSGTDFTLTISSLQPEDFATYYCQQGNTLPLTFGQGTRLEIKR
notes: humanized; also called 68C8-H0L0
With B3 the binding result [5] was “binds”, the binding result [3] was “no binding (tested: 10000 ng/ml (log 4))” and the Kd [4] was 4.49 nM. For the same binder, the koff [4] was 0.00184 s⁻¹, the kon [4] was 410000 M⁻¹ s⁻¹ and the binding result [6] was “binds”.

B4: 68C8-VH3VL2 (antibody, human IgG1, kappa, V domains shown)
VH: QVQLVQSGAEVKKPGASVKVSCKVSGDTFTSYWITWVRQRPGQGLEWIGDIHPGSGSTNNNEKFKNRVTLTVDTSTDTAYMELSSLRSEDTAVYYCATLRPYYFVYWGQGTLVTVSS
VL: DIQMTQSPSSLSASVGDRVTITCRASQDISNYLNWYQQKPGKTPKLLIYYTSRLLSGVPSRFSGSGSGTDYTLTISSLQPEDFATYYCQQGNTLPLTFGQGTRLEIKR
notes: humanized; also called 68C8-H3L2
In the case of B4, the binding result [5] is reported as “binds”, the binding result [3] is reported as “no binding (tested: 10000 ng/ml (log 4))” and the Kd [4] is reported as 9.55 nM. For the same binder, the koff [4] was 0.00157 s⁻¹, the kon [4] was 165000 M⁻¹ s⁻¹ and the binding result [6] was “binds”.

B5: 68C8-VH3VL3 (antibody, human IgG1, kappa, V domains shown)
VH: QVQLVQSGAEVKKPGASVKVSCKVSGDTFTSYWITWVRQRPGQGLEWIGDIHPGSGSTNNNEKFKNRVTLTVDTSTDTAYMELSSLRSEDTAVYYCATLRPYYFVYWGQGTLVTVSS
VL: DIQMTQSPSSLSASVGDRVTITCRASQDISNYLNWYQQKPGKTVKLLIYYTSRLLSGVPSRFSGSGSGTDYTLTISSLQPEDFATYFCQQGNTLPLTFGQGTRLEIKR
notes: humanized; also called 68C8-H3L3
With B5 the binding result [5] was “binds”, the binding result [3] was “no binding (tested: 10000 ng/ml (log 4))” and the Kd [4] was 4.04 nM. For the same binder, the koff [4] was 0.000821 s⁻¹, the kon [4] was 203000 M⁻¹ s⁻¹ and the binding result [6] was “binds”.

B6: 71H8-VH0VL0 (antibody, human IgG1, kappa, V domains shown)
VH: QVQLVQSGAEVKKPGASVKVSCKVSGDTFTSYWITWVRQAPGKGLEWMGDIYPGSGSTNQNEKFKSRVTMTEDTSTDTAYMELSSLRSEDTAVYYCATLRPYYFVYWGQGTLVTVSS
VL: DIQMTQSPSSLSASVGDRVTITCRASQDISNYLNWYQQKPGKAPKLLIYYTSRLLSGVPSRFSGSGSGTDFTLTISSLQPEDFATYYCQQGNTLPLTFGQGTRLEIKR
notes: humanized; also called 71H8-H0L0
In the case of B6, the binding result [5] is reported as “binds”, the binding result [7] is reported as “no binding (tested: 10000 ng/ml (log 4))” and the “EC50 (read off the curve)” value [8] is reported as roughly 3 ng/mL. The “EC50 (read off the curve)” value [9] was roughly 3 ng/mL, the Kd [4] was 9.21 nM and the koff [4] was 0.00274 s⁻¹. For the same binder, the kon [4] was 297000 M⁻¹ s⁻¹.

B7: 71H8-VH2VL2 (antibody, human IgG1, kappa, V domains shown)
VH: QVQLVQSGAEVKKPGASVKVSCKVSGYTFTSYWITWVRQRPGKGLEWMGDIYPGSGSTNQNEKFKSRVTMTVDTSTDTAYMELSSLRSEDTAVYYCATLRPYYFVYWGQGTLVTVSS
VL: DIQMTQSPSSLSASVGDRVTITCRASQDISNYLNWYQQKPGKTPKLLIYYTSRLLSGVPSRFSGSGSGTDYTLTISSLQPEDFATYYCQQGNTLPLTFGQGTRLEIKR
notes: humanized; also called 71H8-H2L2
For B7, the binding result [5] was “binds”, the binding result [7] was “no binding (tested: 10000 ng/ml (log 4))” and the “EC50 (read off the curve)” value [8] was roughly 3 ng/mL. The “EC50 (read off the curve)” value [9] was roughly 3 ng/mL, the Kd [4] was 4.81 nM and the koff [4] was 0.00172 s⁻¹. The kon [4] was 358000 M⁻¹ s⁻¹.

B8: 71H8-VH3VL3 (antibody, human IgG1, kappa, V domains shown)
VH: QVQLVQSGAEVKKPGASVKVSCKVSGYTFTSYWITWVRQRPGQGLEWIGDIYPGSGSTNQNEKFKSRVTLTVDTSTDTAYMELSSLRSEDTAVYYCATLRPYYFVYWGQGTLVTVSS
VL: DIQMTQSPSSLSASVGDRVTITCRASQDISNYLNWYQQKPGKTVKLLIYYTSRLLSGVPSRFSGSGSGTDYTLTISSLQPEDFATYFCQQGNTLPLTFGQGTRLEIKR
notes: humanized; also called 71H8-H3L3
With B8 the binding result [5] was “binds”, the binding result [7] was “no binding (tested: 10000 ng/ml (log 4))” and the “EC50 (read off the curve)” value [8] was roughly 3 ng/mL. The “EC50 (read off the curve)” value [9] was roughly 3 ng/mL, the Kd [4] was 6.36 nM and the koff [4] was 0.00207 s⁻¹. It also gave a kon [4] of 325000 M⁻¹ s⁻¹.

B9: chimeric antibody 6A12 (antibody, human IgG1, kappa, V domains shown)
VH: QVQLQQSGPELVKPGASVKISCKASGYAFSSSWMNWVKQRPGKGLEWIGRIYPGDGITNYNGNFKGKATLTADKSSSTAYMQLSGLTSADSAVYFCAREFIPLGWGTGTTVTVSS
VL: DIVMTQTPFSNPVTLGTSASISCRSSKSLLHSNGITYLYWYLQKPGQSPQLLIYQMSNLASGVPDRFSSSGSGTDFTLRISRVEAEDVGVYYCAQNLELPWTFGGGTKLEIKR
notes: as for B1
B9 was tested, and the EC50 [1] was 883 ng/mL and the EC50 [2] was 177 ng/mL.
